This is an account of results in the DeepSol protein solubility set.

The series in a line: soluble on expression in E. coli; label from the status in PepcDB or PDB records.
With “MTHPFEPFFDKDSKILILGSFPSIKSRQDGFYYQHPRNRFWPILETLFNAKLENITEQQAFLRKKHIALWDVLQSCKIKNSDDKTISYAKANDLNLILSQTKIQAIFTTGQSAYRFFVKFHPRLEAIALPSTSPANLNFSFEQLLQNYEIIKKFTKLEHHHHHH”, the “soluble on expression in E. coli” value is listed as “not soluble”.

“MTHSKDKKSHAFKGIGEKLNPTIYQVRFMKLDEPIRFESFPELKELGDWLSTSTHMWSCHSTMYKYNREEFEKKFLEITKLTADHVLISTGGVGFNFMSPGWRNSL”: the “soluble on expression in E. coli” value is given as “not soluble”.

With “MTIFEKNVIEFVTVAAEFCAFLERAEHMKRKAFVDTSLKILPLLYLKASLLPKCETIGDEAPETYVTEEIYEILRINLAGLMGEKDDYLDVFVQDMVYSDQPIKKSVSEDLADIYQDIKDFIFVFQLGLNETMNDSLAICQENFGLLWGQKLVNTLRALHDVKYLEHHHHHH”, the “soluble on expression in E. coli” value is given as “soluble”.

On to “MTIGIIGSGALGSGIARILASKGISAIISNSRGPESLASLVRELGGSIKAGTAEEAARADIVFAAVRWVDAEKVLSSLPAWEGRIVIDATNPVEFIDPDSPDANDPTNPLAAYGIKAVDLHGKYSSEIFRQFVPGARVVKAFNHLDANVFSAPEVTGGKRVLFYSGDDAAAKTEVRKIIEDTGFVPVDLGTLDVGGPLASLPFGPLAAQNFIRVLEHHHHHH”, for which the “soluble on expression in E. coli” value is recorded as “soluble”.

Consider “MTIIKYIKFVVIIVIVTIVFSCSKNEAGNSEYDPSLPISLTDFFPIQGGMATRMVIEGANFGTDLSQIKVFFNQKEASILNVKNSIIYLLVPKLPGNDCIVTVKVGNQEARFTRNFQYIENYSVTTIAGQPGTNLFVEGTLAAAQFGPVQHLAIDDENNLFITERNGSDGKGTCSVLNEESGTVTFLFKASDNLNVPTVNAQTQNVYIPLDGGYTFYELNPVNQWIAKSRLVLHPSKEQQEAGMDDFEINWKHSLAFSRYDNMIYTRSYGGDLIKVDPETRVGQKIGNFFPNTDSFIVAHPTQPEILYIAYAAKHVIYTYNIETGEHKLFAGAFGQSGWNDGIATDAEFNSPRQMSLDMEGNIYIADSGNHCIRMIDKNGIVTTPIGQPGEAGYADGSPDMALLNDPRGVAVNSEGDVYIADLGNRCIRKLTLQLEHHHHHH”, for which the “soluble on expression in E. coli” value is “not soluble”.

Consider “MTIKNVICDIDGVLMHDNVAVPGAAEFLHGIMDKGLPLVLLTNYPSQTGQDLANRFATAGVDVPDSVFYTSAMATADFLRRQEGKKAYVVGEGALIHELYKAGFTITDVNPDFVIVGETRSYNWDMMHKAAYFVANGARFIATNPDTHGRGFYPACGALCAGIEKISGRKPFYVGKPSPWIIRAALNKMQAHSEETVIVGDNLRTDILAGFQAGLETILVLSGVSSLDDIDSMPFRPSWIYPSVAEIDVILEHHHHHH”, for which the “soluble on expression in E. coli” value is “not soluble”.

Turning to “MTIKYLTKNDVLAACIGGSVYASGGGGFYEHGLEMGEAAVALSPVVLKTIDEFEEDDLIITQTAIGAPAGTTDWQMLGKDYIRAVELLLEKHPHPEKIKGILTPQNGKSSSTNGWLSASALGLAVVHATGDIRAHPTGKMGNMGVANDTTYETIQAVSGGRRETGRHIELSVQGTAAYTSKILRIASDLSGGFIAAARHPLTASYIKQNAVIGGLSKAIELGYCILEHQNEDGSSIIDAIVKHTHGEILAKGKVVAKDMTYTDEAFDVGKVKIKTESDNVTLHVQNEFMAVDSQALGRVATYPDVITLFRAKDAKALSTDEISIDEEVVVFKISHKHFPLSTGVKDPSVYPEVENVLGIDLYRHAFKLEHHHHHH”, the “soluble on expression in E. coli” value is recorded as “soluble”.

As for “MTILFISDLHLSPLRPDITDCFIDFMQNEAIHAEKLYVLGDLFEFWIGDDDNSPFNVSIKNEFKALTEKGVKCYFIQGNRDFLLNKRFCKETGVELLDDHTVIELDGEKVLIMHGDTLCIDDIKYQEFRAKVHKPWLQWVFNRIPLFIRQRIVKNVQDKIKEKKQTKTLCIMDVTQSEVERVMQEEGVQRLIHGHTHRPDTHTFMSNNKEMTRIVLGDWYSQGSILEYSDKIYSLHKKEFK”, the “soluble on expression in E. coli” value is given as “not soluble”.

In the case of “MTIRINNISLDINEDLSLLKNKVAKKLRMSKDEIGDIKIIKESLDARKKNLIKFNYCINIEHEDEEKIVARLNDKDVKIDKVNYDFDFNFGEKKLQHRPVVIGLGPAGLFAALLLAKKGFNPIVFERGEDVDSRTKTVEEFWRTGELNPESNVQFGEGGAGAFSDGKLTTRIKDTRCDYVLDALVRNGAPEEIIYKGKPHVGTDILKNVVKNIREEIKRHGGEVHFNSRFEGIIKKDNKLKGIKVNGEEVPCEVAILALGHSSRDTYEMLFNEGVFMKQKPFAIGVRIEHPQEIINLSQYGEKYANHPRLKAAEYRLAYQSKTLDRAVYSFCMCPGGVVVNASSEEKRLCVNGMSYHARDKENANSALVVTVGPNDFGGDHPLEGMKFQRHYEELAFKLGGGNYNTPVQLVGDFMKDRVTTKLGKVNPSVLSNGYRFEDLRKCLPSYVIDGLKEGITDFDRKIKGFGHSDSVLTGIETRTSAPVRIERNEKLQSISLEGLYPAGEGAGFAGGIVSAAVDGLKVAENIMKEYRVLEHHHHHH”, the “soluble on expression in E. coli” value is “not soluble”.

Consider “MTITDKNRLTGEADPRRTSLYGPPSMDALTERALHLARAGRALLGIVGEPGAGKSTFAEQLRARLEKERPGLAVTVSMDGFHLAQKVIEARGQAADKGTIDTFDADGFVALLRRTRAETGDTENTESTVWWPEFDRDLEDPVAGSIEVAPHHRLVIVDGNFLLSAQEPWRQVKGLLDETWFLDALPEPRRERLTRRYISYGFTPEAARAKTLGVDEDTSALIRSTVSRADLVIGEARESGGVSDC”, for which the “soluble on expression in E. coli” value is “not soluble”.

As for “MTIYVVTPTYARLVQKAELVRLSQTLSLVPRLHWLLVEDAEGPTPLVSGLLAASGLLFTHLVVLTPKAQRLREGEPGWVHPRGVEQRNKALDWLRGRGGAVGGEKDPPPPGTQGVVYFADDDNTYSRELFEEMRWTRGVSVWPVGLVGGLRFEGPQVQDGRVVGFHTAWEPSRPFPVDMAGFAVALPLLLDKPNAQFDSTAPRGHLESSLLSHLVDPKDLEPRAANCTRVLVWHTRTEKPKMKQEEQLQRQGRGSDPAIEV”, the “soluble on expression in E. coli” value was “soluble”.

Take “MTKDRQIKKTKTAIYSAFIALLQKKEYSKITVRDMITLANVGRSTFYAHYESKEMLLKELCEELFHHLFRQKRNVTFEDYLVHILKHFEQNKDSIATLLLSNDPYFLLRFKNELEHDVYPNLRCKYIDKTTIPEVFLKQFVLSSFIETLKWWLHQRQRMSANELLKYYLELIK”: the “soluble on expression in E. coli” value is reported as “soluble”.

With “MTKHARFSLLPSFIIFSAALLAGCNDQGDTQAHAGEPQVTVHVVETAPLAVTTELPGRTSAFRIAEVRPQVSGIVLKRNFTEGSDVEAGQSLYQIDPATYQADYDSAKGELAKSEAAAAIAHLTVKRYVPLVGTKYISQQEYDQAIADARQADAAVVAAKAAVESARINLAYTKVTSPISGRIGKSNVTEGALVTNGQSTELATVQQLDPIYVDVTQSSNDFMRLKQSVEQGNLHKDSASSTVQLVMENGQVYPIKGTLQFSDVTVDESTGSITLRAVFPNPQHSLLPGMFVRARIDEGVQPNAILVPQQGVTRTPRGDAMVMVVNDKSQVEARNVVAAQAIGDKWLISEGLKPGDKVIVSGLQKARPGVQVKATTDAPAAKTAQ”, the “soluble on expression in E. coli” value was “not soluble”.

For “MTKITYKVASEHPFPADAAAAAASLAAYEALDDVTKARVDQMVDWIMKNCLWQFHSRAWDRKRQNEGILGIAAKLLAGEPFTPETPEDRCYWVDSVTLQRAYLATCPWLATMSKGDIRALMKELHARVDYLTVTGSLNEELTDLHYLEHHHHHH”, the “soluble on expression in E. coli” value is “not soluble”.

As to “MTKIWTRDGFAENDPWVIETEEVKATGEQKPVLPLADFLVRAAESNDIGLGVLISPADDVNRLEPYLDRIDLVAVSFPAFNDGRGFSHASLLRSRLGFAGEVRAVGDVLIDQVPLMLRTGFTSFAVTNETAIRRLSENRLPEITVYYQPTALPATGGEAYSWRRRAAQ”, the “soluble on expression in E. coli” value was “not soluble”.

With “MTKKELRAQIRQRNREMLAAENRERWSQSIIERIRRLDIFADAKRIGLYHALPDEPDLTGLLREYVQTKQLFIPRVEGDDIAFYAYTGEADLEAEGAYGIAEPTADAATAILPSSLDLLLVPGVAFDRKGSRMGRGKGYYDRFLPATQVRLIGVTFSYRLLEELPTDPWDRPMDGVITESETLFCLEHHHHHH”, the “soluble on expression in E. coli” value is recorded as “soluble”.

Regarding “MTKKKVYNKRKRKEASIRVLEAIREKRKQQLAENARLEAEQAEQDVAPEPIDVQDPVINAGNIVEDAEPLNVNPSPPQPRKFNFRVANLEIARQAKISQNLMKTSETASTSSPVRQQVKTEIVPRVSQRTIVKTQALPRVNAPVLSSVPAKNPLPPKFVYINTAGLKRKRDDDKNTPSTSNSITLNPSSRGDQTQFIVHLQRTIERLEKEKAALTEKLTMREDEIKVFSVEFVNIQKENVKLMKENKAKESQISNQSIQVRNSWKFADLFKKELQKSRKDVSEVKWKIDKIEKKVGIKKPTPRKKPDVKLINPEDISLMSDRTQDGEDSSDFGSPLAKYLKPDQPSTSSACYGKPFYFESTSSSSRKPITASPGPPGRTQISDQLNTGEVRYVVNSGKPFNFSSESNSRNLKLIPGYIKRPEFRYIKPEGFTSASYKAQSEGMSSFLKTGSSATPENSKKSAHFDMPDISSTPYKSHVVVESDEMNSSSSTIGGFESEKKDNGALGSQKSPMPDIATALHNIFDSKEVQSSSSTTGSSAPPENSKKSDHFDMPDISSTLYRSRVEPISSSSSGSTSTSAPRYVPKPIAQPARYAIPSPGALNALRRPPEWKGQRRHAPSYVKSRESVTFRGCSRFPVTSPHFAKAHLEPVTDGKDDSKIVKYRFVPKRPDFDGEREHKK”, the “soluble on expression in E. coli” value is listed as “not soluble”.

“MTKKVGIVDTTFARVDMASIAIKKLKELSPNIKIIRKTVPGIKDLPVACKKLLEEEGCDIVMALGMPGKAEKDKVCAHEASLGLMLAQLMTNKHIIEVFVHEDEAKDDKELDWLAKRRAEEHAENVYYLLFKPEYLTRMAGKGLRQGFEDAGPARE”: the “soluble on expression in E. coli” value was “soluble”.

Turning to “MTKKYLKVDVVSPLGSVFKGEADMVSLRGSAGEMGIAYGHTELLSTLPAGVVNVRKDQHTDVLYVSGGIVEVTPTRVTIMVDDMERAENLNQAEAEKARARAKEVLKNPDASKLDIEAANKRLKEADARLKALNSSNGLYYSKDD”, the “soluble on expression in E. coli” value is “not soluble”.

With “MTKLVIDTVGPATSVQDAGRHGAQRYGLPPSGAMDRLSLAAANVLVGNSAFAAAIELGPLGAKLSVRDGAVRLALTGAERPAALDGQPLAFNESFTLAEGQILTLGVARGGVFSYLGIEGGVGGEPMFGSLAVNARAGLGSPYPRPLQAGDAIAVKSAAPSVERRLDLPEQQDTPIRVVLGPQDDEFGAAVEIFLTGEWTMSATSDRMGYRLDGPQISHLHGHNIVSDGTVDGSIQVPGSGQPIVLMPDRGTSGGYPKIATVISADLGRLAQRQPGRPFRFQAVSVEEAQDAYRTMAKLIRSLPDLLRDAQHAIIDLDALLSANVAGTAIDALAAELEHHHHHH”, the “soluble on expression in E. coli” value was “not soluble”.

For “MTKLVKINYPNIDEDLYYVKLENGLTVYFIKKIGFLEKTAMLTVGFGSLDNKLTVDDESRDAPAGIAHFLEHKLFEDESGGDISLKFTQLGAETNAFTTFNQTSFFFSTASKFQENLELLQYFVLSANITDESVSREKKIIGQEIDMYQDDADYRAYSGILQNLFPKTSLANDIAGSKASIQKITKILLETHHTYFYQPTNMSLFIVGDIDIDETFLAIQRFQTTLSYPDRKRVTVDPLHYYPVIKSSSVDMDVTTAKLVVGFRGYLTLTQHSLLTYRIALKLFLSMLIGWTSKIYHTLYEDGKIDDSFDVDVEIHHNFQFVLISLDTPEPIAMSNYIRQKLATIKISKEFTNEHLNLLKKEMYGDFIQSLDSIEHLTHQFSLYLSDSDKETYFDIPKIIERLTLKDVVTIGKAFFEKADASDFTVFPK”, the “soluble on expression in E. coli” value is given as “not soluble”.
